Experimental findings from patent US20250051455A1 (Hoffmann-La Roche, published 2025) are described below.

The target of experiment [1] is T1, modified human HLA-G β2M MHC class I complex (HLA-G specific amino acids replaced by HLA-A consensus amino … (human)).
T1 construct: Counter antigen: single-chain fusion of peptide, beta-2 microglobulin and HLA-G in which 14 HLA-G unique surface positions were mutated to an HLA-A consensus; also called degrafted HLA-G; HLA-G-0007
In words: ELISA, biotinylated degrafted HLA-G on streptavidin plate (no EC50; Max. OD 0.13). Here is the method: (§1) Streptavidin coated plates (Nunc, MicroCoat #11974998001) were coated with 25 μl/well biotinylated human degrafted HLA-G at a concentration of 250 ng/ml and incubated at 4° C. overnight. After washing (3×90 μl/well with PBST-buffer) 25 μl anti-HLA-G samples (1:3 dilution in OSEP buffer) or rat serum (1:600 dilution in OSEP) were added and incubated 1 h at RT. After washing (3×90 μl/well with PBST-buffer) 25 μl/well of a mixture of goat-anti-rat IgG1-POD (Bethyl #A110-106P), goat-anti-rat IgG2a-POD (Bethyl #A110-109P) and goat-anti-rat IgG2b-POD (Bethyl #A110-111P) 1:10000 in OSEP was added and incubated at RT for 1 h on shaker. After washing (6×90 μl/well with PBST-buffer) 25 μl/well TMB substrate (Roche, 11835033001) was added and incubated until OD 2-3. Measurement took place on a Tecan Safire 2 instrument at 370/492 nm.
(In general: In an ELISA, binding on a coated surface is turned into a signal by an enzyme label.)

The target in experiment [2] is T2, recombinant soluble human HLA-G β2M MHC class I complex, monomer (human).
T2 construct: His tagged; biotinylated where coated on streptavidin plates, non-biotinylated in SPR; also called HLA-G-0003; wt HLA-G (monomer)
The experiment can be described thus: SPR Biacore T200, antibody captured via anti-Fc, HLA-G monomer as analyte, 25 C. Here is the method:
Binding kinetics of anti-HLA-G antibodies to human HLA-G, human HLA-G degrafted and human HLA-A2 were investigated by surface plasmon resonance using a BIACORE T200 instrument (GE Healthcare). All experiments were performed at 25° C. using PBS Buffer (pH 7.4+0.05% Tween20) as running buffer and PBS Buffer (+0.1% BSA) as dilution buffer. Anti-human Fc (JIR009-005-098, Jackson) or anti-rat Fc (JIR112-005-071, Jackson) or anti-Mouse Fc (JIR115-005-071, Jackson) antibodies were immobilized on a Series S CM5 Sensor Chip (GE Healthcare) at pH 5.0 by using an amine coupling kit supplied by GE Healthcare. Anti-HLA-G antibodies were captured on the surface leading to a capturing response of 50-200 RU. HLA-G molecules were injected for 180 s at 30 μl/min with concentrations from 2.5 up to 800 nM (2×1:2 and 4×1:3 dilution series) onto the surface (association phase). The dissociation phase was monitored for 300-600 sec by washing with running buffer. The surface was regenerated by injecting H3PO4 (0,85%) for 60+30 seconds for anti-human Fc capturing antibodies, glycine pH1,5 for 60 seconds and glycine pH2,0 for 60 seconds for anti-rat Fc capturing antibodies, H3PO4 (0,85%) for 80+60 seconds for anti-mouse Fc capturing antibodies. Bulk refractive index differences were corrected by subtracting the response obtained from a mock surface. Blank injections were subtracted (double referencing). The derived curves were fitted to a 1:1 Langmuir binding model using the BIAevaluation software.
The above table summarizes the antibody affinities and t½ values against wt and degrafted HLA-G as assessed by Surface plasmon resonance (Biacore) analysis. Binding kinetics of anti-HLA-G antibodies to human HLA-G and human HLA-G degrafted were investigated by surface plasmon resonance using a BIACORE T200 instrument (GE Healthcare). All experiments were performed at 25° C. using PBS Buffer (pH 7.4+0.05% Tween20) as running buffer and PBS Buffer (+0.1% BSA) as dilution buffer. Anti-human Fc (JIR009-005-098, Jackson) or anti-rat Fc (JIR112-005-071, Jackson) or anti-Mouse Fc (JIR115-005-071, Jackson) antibodies were immobilized on a Series S CM5 Sensor Chip (GE Healthcare) at pH 5.0 by using an amine coupling kit supplied by GE Healthcare.

Experiment [3] addresses T1, modified human HLA-G β2M MHC class I …. The experiment can be described thus: ELISA, biotinylated degrafted HLA-G on streptavidin plate (no EC50; Max. OD 0.15). The procedure: as §1
Experiment [4] shares this target. The experiment can be described thus: ELISA, biotinylated degrafted HLA-G on streptavidin plate (no EC50; Max. OD 0.2). The procedure: as §1
Experiment [5] deals with T3, recombinant soluble human HLA-G β2M MHC class I complex, trimer (human).
T3 construct: Non-biotinylated; also called HLA-G Trimer; trimeric HLA-G
In words: competition ELISA, antibody 44 nM; competitor coated ILT4-Fc. Here is the method: (§2) The ELISA was set up by coating the Fc tagged ILT2 and ILT4 respectively to Maxisorp microtiter plates. After incubation and washing steps, the respective antibodies were added at a concentration of 100 nM. Soluble His tagged monomeric, dimeric or trimeric HLA-G was added to the wells. After incubation and washing steps, detection of bound receptor was carried out by anti-His-antibody-POD conjugates.
(§3) The above tables summarize the blocking of interaction between rec. HLA-G proteins (monomer and oligomers) to its receptors ILT2 and ILT4 by the described HLAG antibodies at a concentration of 110 nM (*HLAG-0090 was tested at a concentration of 44 nM) as assessed by ELISA. Shown are the % inhibitions of the HLA-G/receptor interaction (for ILT2 and ILT4). The less pronounced ILT4 inhibition depends on the major β2M dependent interaction of this receptor.

In experiment [6] the target is T4, recombinant soluble human HLA-G β2M MHC class I complex, dimer (human).
T4 construct: Non-biotinylated; also called HLA-G Dimer; dimeric HLA-G
The experiment is described as above. The procedure: as §2, §3

The target of experiment [7] is T2, recombinant soluble human HLA-G β2M MHC …. In words: competition ELISA, antibody 44 nM; competitor coated ILT2-Fc. Here is the method: as §2, §3
Experiment [8] has as its target T3, recombinant soluble human HLA-G β2M MHC …. The experiment is described as above. Here is the method:
as §2, §3

Experiment [9] addresses T4, recombinant soluble human HLA-G β2M MHC …. The experiment is described as above. Here is the method: as §2, §3

B1: HLA-G-0031 (antibody, V domains shown)
VH: QVKLMQSGAALVKPGTSVKMSCNASGYTFTDYWVSWVKQSHGKRLEWVGEISPNSGASNFDENFKDKATLTVDKSTSTAYMELSRLTSEDSAIYYCTRSSHGSFRWFAYWGQGTLVTVSS
VL: AIVLNQSPSSIVASQGEKVTITCRASSSVSSNHLHWYQQKPGAFPKFVIYSTSQRASGIPSRFSGSGSGTSYSFTISRVEAEDVATYYCQQGSSNPYTFGAGTKLELK
notes: Rat monoclonal antibody obtained from CD rats
Regarding B1, the binding result in experiment [1] was “no binding”. In addition, in [2], the Kd – broadly, the constant that tells how readily two partners part at equilibrium – amounted to 75 nM; the koff (as a rule, a measure of how fast the partners let go of each other) came out at 0.0037 s⁻¹; the kon (usually a measure of how fast the partners come together) was 49000 M⁻¹ s⁻¹; the “t 1/2” value turned out to be 3 min.

B2: HLA-G-0039 (antibody, V domains shown)
VH: EVQLLESGGGLVQPGGSLRLSCAASGFTFSSYAMNWVRQAPGKGLEWVSVISGSGVSTYYADSVKGRFTISRDNSRNTLSLQMNSLRAEDTAVYYCAKDGSYNYGYGDYFDYWGQGTLVTVSS
VL: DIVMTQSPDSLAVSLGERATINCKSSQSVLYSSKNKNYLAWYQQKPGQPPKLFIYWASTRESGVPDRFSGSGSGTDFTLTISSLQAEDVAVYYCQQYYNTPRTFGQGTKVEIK
notes: Human antibody from humanized OmniRat (OMT) rats
Take B2: the binding result in experiment [1] was “no binding”. For the same molecule, in experiment [2], the Kd came out at 0.95 nM, the koff is 0.00044 s⁻¹, the kon stood at 460000 M⁻¹ s⁻¹ and the “t 1/2” value was found to be 27 min.

B3: HLA-G-0041 (antibody, V domains shown)
VH: EVQLLESGGGLVQPGGSLRLSCAASGFTFSTYGMSWVRQAPGKGLEWVSVISGGGVSTYYADSVKGRFTISRDNSKNTLYLQMNRLRAEDTAVYYCAKDGSYNYGYGDYFDYWGQGTLVTVSS
VL: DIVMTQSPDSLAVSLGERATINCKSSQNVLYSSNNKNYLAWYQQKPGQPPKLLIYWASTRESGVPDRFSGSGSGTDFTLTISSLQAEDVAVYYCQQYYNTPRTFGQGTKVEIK
notes: as for B2
Turning to B3, in [2], the equilibrium dissociation constant (Kd) was 1.3 nM, the koff was determined as 0.00049 s⁻¹, the kon is 380000 M⁻¹ s⁻¹ and the “t 1/2” value came out at 23 min. Further, the binding result in experiment [3] is listed as “no binding”.

B4: HLA-G-0090 (antibody, V domains shown)
VH: QVQLQQSGPGLLKPSQTLSLTCAISGDSVSSNRAAWNWIRQSPSRGLEWLGRTYYRSKWYNDYAVSVQGRITLIPDTSKNQFSLRLNSVTPEDTAVYYCASVRAVAPFDYWGQGVLVTVSS
VL: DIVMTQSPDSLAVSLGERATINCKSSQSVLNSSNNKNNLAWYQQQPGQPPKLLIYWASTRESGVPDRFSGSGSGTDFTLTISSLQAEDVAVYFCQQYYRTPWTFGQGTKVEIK
notes: as for B2
Consider B4, for which the Kd in experiment [2] was 3.6 nM. Moreover, in experiment [2], the koff is 0.00085 s⁻¹. Besides, the kon in [2] is 230000 M⁻¹ s⁻¹. Further, the “t 1/2” value in experiment [2] came out at 14 min. Moreover, the binding result in [4] is “no binding”. For the same molecule, the “% inhibition of ILT4 binding” value is 47% in experiment [5] and 31% in experiment [6]. The “% inhibition of ILT2 binding” value in experiment [7] was 92%; in [8] it was 99%; in experiment [9] it was 100%.
